According to the Human Domainome abundance scans (Beltran et al. 2025):
± gives the uncertainty stated by the source.

B1: Telomeric repeat-binding factor 2, residues 489 to 542; numbered along this chain, Q15554 (parent)
chain: KQKWTVEESEWVKAGVQKYGEGNWAAISKNYPFVNRTAVMIKDRWRTMKRLGMN

Variants of: B1
Experiment: abundance fitness (aPCA) (normalised: wild type 0, dead -1); higher = more abundant; growth selection in yeast, the domain comes from the species named
Details: Homo sapiens
Variant V16A has an abundance fitness of -0.505 ± 0.1.
In the case of V16F, the abundance fitness is reported as -0.936 ± 0.44.
For V16I, the abundance fitness was -0.446 ± 0.2.
V16L showed an abundance fitness of -0.696 ± 0.19.
Variant V16D has an abundance fitness of -0.459 ± 0.091.
For V16H, the abundance fitness was -0.071 ± 0.28.
For V16M, the abundance fitness was -0.664 ± 0.05.
V16Q gave an abundance fitness of -0.398 ± 0.13.
Work on V16T yielded an abundance fitness of -0.157 ± 0.17.
For K18T, the abundance fitness was -0.035 ± 0.12.
Work on K18Q yielded an abundance fitness of -0.07 ± 0.11.
For K18F, the abundance fitness was -0.477 ± 0.46.
Work on K18A yielded an abundance fitness of -0.368 ± 0.13.
Variant K18W has an abundance fitness of -0.956 ± 0.21.
K18L gave an abundance fitness of -0.342 ± 0.07.
Work on K18E yielded an abundance fitness of -0.233 ± 0.11.
Variant K18C has an abundance fitness of -0.403 ± 0.34.
K18G showed an abundance fitness of -0.616 ± 0.14.
K18N gave an abundance fitness of -0.435 ± 0.18.
K18R showed an abundance fitness of 0.076 ± 0.067.
For K18S, the abundance fitness was -0.736 ± 0.27.
K18M gave an abundance fitness of -0.254 ± 0.12.
Variant K18P has an abundance fitness of -0.686 ± 0.11.
G22T gave an abundance fitness of -0.467 ± 0.35.
With G22R the abundance fitness was -0.261 ± 0.1.
G22Q gave an abundance fitness of -0.427 ± 0.09.
For G22D, the abundance fitness was -0.051 ± 0.072.
With G22Y the abundance fitness was -0.204 ± 0.068.
For G22F, the abundance fitness was -0.338 ± 0.19.
G22E showed an abundance fitness of -0.461 ± 0.17.
In the case of G22A, the abundance fitness is reported as -0.286 ± 0.1.
With G22L the abundance fitness was -0.761 ± 0.14.
Variant G22V has an abundance fitness of -0.489 ± 0.07.
With G22K the abundance fitness was -0.418 ± 0.16.
For G22P, the abundance fitness was -0.846 ± 0.25.
Variant G22W has an abundance fitness of -0.695 ± 0.17.
With G22M the abundance fitness was -0.788 ± 0.15.
G22I showed an abundance fitness of -0.595 ± 0.29.
Variant V12M has an abundance fitness of -0.132 ± 0.23.
V12S showed an abundance fitness of -0.356 ± 0.054.
V12C showed an abundance fitness of -0.362 ± 0.17.
Work on V12W yielded an abundance fitness of -0.744 ± 0.13.
For V12P, the abundance fitness was -0.325 ± 0.2.
Work on V12R yielded an abundance fitness of -0.682 ± 0.14.
Work on V12E yielded an abundance fitness of -0.262 ± 0.089.
V12N showed an abundance fitness of -0.844 ± 0.32.
With V12A the abundance fitness was -0.423 ± 0.075.
Work on V12Y yielded an abundance fitness of -0.855 ± 0.34.
Work on V12G yielded an abundance fitness of -0.495 ± 0.063.
With V12K the abundance fitness was -0.626 ± 0.25.
For V12F, the abundance fitness was -0.75 ± 0.25.
With V12T the abundance fitness was -0.144 ± 0.15.
With V12H the abundance fitness was -1.02 ± 0.24.
With V12Q the abundance fitness was -0.895 ± 0.17.
In the case of W4S, the abundance fitness is reported as -0.248 ± 0.098.
For W4L, the abundance fitness was -0.41 ± 0.09.
With W4A the abundance fitness was -0.804 ± 0.19.
In the case of W4M, the abundance fitness is reported as -0.27 ± 0.21.
Variant W4G has an abundance fitness of -0.637 ± 0.15.
In the case of W4V, the abundance fitness is reported as -0.61 ± 0.23.
W4R showed an abundance fitness of -0.747 ± 0.19.
Work on W4K yielded an abundance fitness of -0.426 ± 0.38.
For W4C, the abundance fitness was -0.599 ± 0.23.
In the case of W4H, the abundance fitness is reported as -0.391 ± 0.16.
W4T gave an abundance fitness of -0.258 ± 0.3.
W4I showed an abundance fitness of -0.131 ± 0.1.
Work on W4P yielded an abundance fitness of -0.216 ± 0.28.
For W4E, the abundance fitness was -0.126 ± 0.22.
W4F gave an abundance fitness of -0.023 ± 0.12.
W4Y gave an abundance fitness of -0.325 ± 0.059.
Work on W4Q yielded an abundance fitness of -0.266 ± 0.17.
Work on W4D yielded an abundance fitness of -0.171 ± 0.33.
W11V showed an abundance fitness of -0.47 ± 0.048.
For W11T, the abundance fitness was -0.12 ± 0.11.
With W11G the abundance fitness was -0.193 ± 0.057.
Work on W11A yielded an abundance fitness of -0.352 ± 0.095.
For W11M, the abundance fitness was -0.111 ± 0.11.
Variant W11R has an abundance fitness of -0.553 ± 0.083.
W11Y showed an abundance fitness of -0.191 ± 0.071.
For W11N, the abundance fitness was -0.391 ± 0.2.
For W11P, the abundance fitness was -0.327 ± 0.19.
Work on W11D yielded an abundance fitness of -0.183 ± 0.13.
With W11H the abundance fitness was -0.294 ± 0.16.
W11F showed an abundance fitness of -0.394 ± 0.13.
With W11I the abundance fitness was -0.241 ± 0.18.
With W11S the abundance fitness was -0.321 ± 0.06.
T5G showed an abundance fitness of -0.421 ± 0.14.
With T5L the abundance fitness was -0.75 ± 0.13.
Work on T5R yielded an abundance fitness of -0.557 ± 0.051.
T5W gave an abundance fitness of -0.631 ± 0.26.
Work on T5K yielded an abundance fitness of -0.161 ± 0.17.
In the case of T5E, the abundance fitness is reported as -0.272 ± 0.16.
In the case of T5M, the abundance fitness is reported as -0.21 ± 0.088.
Work on T5D yielded an abundance fitness of -0.38 ± 0.14.
T5I showed an abundance fitness of -0.669 ± 0.31.
Work on T5P yielded an abundance fitness of -0.398 ± 0.19.
For T5F, the abundance fitness was -0.826 ± 0.11.
With T5S the abundance fitness was -0.105 ± 0.056.
With T5Q the abundance fitness was -0.502 ± 0.2.
Work on T5V yielded an abundance fitness of -0.789 ± 0.11.
E8Q showed an abundance fitness of -0.566 ± 0.19.
E8G showed an abundance fitness of -0.394 ± 0.099.
Work on E8V yielded an abundance fitness of -0.596 ± 0.12.
For E8N, the abundance fitness was -0.707 ± 0.37.
With E8T the abundance fitness was -0.485 ± 0.15.
E8L gave an abundance fitness of -0.19 ± 0.062.
In the case of E8S, the abundance fitness is reported as -0.65 ± 0.064.
Variant E8A has an abundance fitness of -0.381 ± 0.072.
E8P gave an abundance fitness of -0.598 ± 0.12.
E8Y showed an abundance fitness of 0.233 ± 0.13.
E8M showed an abundance fitness of -0.238 ± 0.12.
Variant E8K has an abundance fitness of -1 ± 0.36.
Work on E8R yielded an abundance fitness of -0.638 ± 0.091.
With E8W the abundance fitness was -0.153 ± 0.048.
In the case of E8I, the abundance fitness is reported as -0.339 ± 0.099.
K13G showed an abundance fitness of -0.184 ± 0.05.
Variant K13A has an abundance fitness of -0.242 ± 0.1.
Variant K13R has an abundance fitness of 0.017 ± 0.066.
Work on K13C yielded an abundance fitness of -0.534 ± 0.16.
In the case of K13I, the abundance fitness is reported as -0.163 ± 0.16.
K13H showed an abundance fitness of -0.13 ± 0.14.
Work on K13Y yielded an abundance fitness of -0.072 ± 0.11.
Work on K13L yielded an abundance fitness of -0.112 ± 0.087.
For K13D, the abundance fitness was -0.332 ± 0.21.
Variant K13S has an abundance fitness of -0.128 ± 0.049.
For K13M, the abundance fitness was -0.013 ± 0.069.
With K13V the abundance fitness was -0.021 ± 0.048.
In the case of K13N, the abundance fitness is reported as -0.232 ± 0.057.
In the case of K13E, the abundance fitness is reported as -0.25 ± 0.18.
With K13F the abundance fitness was -0.24 ± 0.22.
Work on K13Q yielded an abundance fitness of 0.076 ± 0.084.
Work on E21R yielded an abundance fitness of -0.704 ± 0.12.
E21Y showed an abundance fitness of -0.123 ± 0.14.
E21F showed an abundance fitness of -0.1 ± 0.12.
With E21M the abundance fitness was -0.829 ± 0.26.
Work on E21G yielded an abundance fitness of -0.389 ± 0.084.
E21K showed an abundance fitness of -0.44 ± 0.075.
Variant E21T has an abundance fitness of -0.478 ± 0.064.
For E21C, the abundance fitness was -0.432 ± 0.12.
E21D gave an abundance fitness of -0.26 ± 0.14.
Variant E21S has an abundance fitness of -0.323 ± 0.085.
In the case of E21A, the abundance fitness is reported as -0.314 ± 0.05.
E21W showed an abundance fitness of -0.502 ± 0.083.
Work on E21Q yielded an abundance fitness of -0.634 ± 0.12.
For E21H, the abundance fitness was -0.598 ± 0.32.
V6F showed an abundance fitness of 0.031 ± 0.15.
V6N gave an abundance fitness of -0.433 ± 0.23.
V6R showed an abundance fitness of 0.03 ± 0.054.
Variant V6T has an abundance fitness of -0.115 ± 0.16.
In the case of V6E, the abundance fitness is reported as -0.007 ± 0.094.
Variant V6A has an abundance fitness of 0.291 ± 0.085.
Work on V6Y yielded an abundance fitness of 0.192 ± 0.082.
Work on V6M yielded an abundance fitness of -0.768 ± 0.29.
With V6W the abundance fitness was -0.063 ± 0.076.
In the case of V6H, the abundance fitness is reported as 0.298 ± 0.11.
Work on V6G yielded an abundance fitness of -0.253 ± 0.061.
For V6S, the abundance fitness was -0.024 ± 0.089.
With V6I the abundance fitness was 0.005 ± 0.046.
Work on V6C yielded an abundance fitness of 0.07 ± 0.11.
Work on V6D yielded an abundance fitness of 0.059 ± 0.12.
Work on V6K yielded an abundance fitness of 0.171 ± 0.048.
Variant K1C has an abundance fitness of -0.578 ± 0.31.
K1G gave an abundance fitness of -0.585 ± 0.23.
Work on K1D yielded an abundance fitness of -0.17 ± 0.16.
Work on K1R yielded an abundance fitness of -0.631 ± 0.16.
In the case of K1M, the abundance fitness is reported as -0.501 ± 0.15.
With K1E the abundance fitness was -0.323 ± 0.2.
